“Also recorded” adds a separate entry of the source.

For one assay, the system named is human platelets. Description: Flow cytometry on human platelets. The following applies: total (CD42) and thrombin-activated (CD62) platelets. The format is binding. On the procedure: To avoid platelet activation, human platelets were isolated from plasma of healthy donors using the platelet GelSep kit (Biocytex, Marseille, France) kit according to the guidelines of the manufacturer. Platelets were activated by the addition of thrombin to a final concentration of 0.8 U/ml. To distinguish activated from non-activated platelets double staining was performed with Tie1 antibodies/control antibodies and antibody CD42 (total platelets) or CD62 (activated platelets).
After preparation, platelets were resuspended in buffer 2 of the GelSep kit, 10% heat inactivated human serum (incubation buffer) and incubated for 1 hour. […] Platelets were spun down by centrifugation for 10 min at 611 g. Between incubations platelets were washed twice with Buffer 1 of the GelSep kit. Then, Strepatvidin-R-phycoerythrin together with anti-CD42-PercP or anti-CD62-PercP were incubated for 30 minutes at room temperature in incubation buffer After the last incubation and washing detection of bound antibodies was performed by means of flow cytometry on a FACSscan and Epics Altra (Becton Dickinson, Oxnard, Coulter,) and results analyzed. Cells were gated on SSC and anti-CD42-PercP for the total platelets in case non-activated platelets were used and on SSC and anti-CD62-PercP for the activated platelets. […]

The test system of another assay is HUVEC. Kind of assay: Tube formation by HUVEC in collagen gel. The assay is classed as cell-based, human. The procedure:
Human Umbilical vein endothelial cells (HUVEC) were obtained by treating fresh human umbilical cord veins with Trypsin-EDTA (1×) (Gibco/Invitrogen) for 20-25 minutes at 37° C. The cells were cultured in a T-25 flask coated with attachment factor (AF), (Cascade Biologics) in RPMI 1640 medium supplemented with 10% FCS, 0.4% BBE, 1% 1-glutamin, 1% penicillin/streptomycin. Primary cultures were detached with warm Trypsin-EDTA and used when confluent at the second or third passage. The cells were maintained in a proliferative state by culturing them in a split ratio 1:2 at an approximate density of the monolayer of about 60-80%. […]
After 2 passages HUVECs were seeded in their culture medium (40×10^3/50 μl/well of a 96-well plate) on a collagen gel (50 μl of collagen I 1.5 mg/ml) prepared by mixing 7.5 volumes of 2 mg/ml collagen (Collagen R; Serva, Heidelberg, Germany), 1 volume of 10× MEM, 1.5 volume of NaHCO3 (15.6 mg/ml) and ˜1 volume of NaOH to adjust the pH to 7.4. […] The assay was performed with a streptavidin antibody used as a control (from 1 ng/ml to 10 μg/ml): The total length of the tube network on the culture surface was quantified at 40× magnification by the METAVUE™ Software (Universal Imaging Corporation). Results from triplicate wells were expressed as mean vessel area per field ±SEM (relative units). […]

B1: E3: human anti-Tie1 antibody from phage Fab library, reformatted as IgG; HC variable SEQ ID NO:114, LC variable SEQ ID NO:116 (antibody, V domains shown)
VH: EVQLLESGGGLVQPGGSLRLSCAASGFTFSMYGMVWVRQAPGKGLEWVSVISPSGGNTGYADSVKGRFTISRDNSKNTLYLQVNSLRAEDTAVYYCARAPRGYSYGYYYWGQGTLVTVSSASTKGPSVFPLAPSSKSTSGG
VL: DIQMTQSPLSLSASVGDRVTITCRASQGIGHYLAWYQQKPGKVPKLLIYTASTLQSGVPSRFSGSGSGTDFTLTINSLQPEDVATYYCQQFNSYPHTFGQGTRLDIK
modifications: IgG constant regions; Synthetically generated peptide
As to B1, the binding to platelets entry in the assay with human platelets is recorded as “Only a background number of CD42 positive cells are labeled; also recorded: no significant binding to total platelets, nor to activated platelets”; with human platelets (listed as DX-2200), “did not show significant binding to platelets”. Besides, the “IC50, tube formation” value in the assay with HUVEC (HUVEC, collagen type-I matrix, 0.1 ng/ml to 100 ng/ml tested) was “less than 10 ng/ml”. Moreover, the “inhibition of tube formation by HUVECs” value in the assay with HUVEC (collagen type-I gel) is “potent inhibitor of tube formation by HUVECS even at a concentration of 10 ng/ml”.

For the origin of these results see patent publication US20100196361A1, “Method of inhibition of vascular development using an antibody” (DYAX CORP., priority 2003, published 2010).
